Earlier results, collected in paper PMC5606850.

Molecular target: HTLV-1 nucleocapsid NTD (Human T-cell leukemia virus type 1) (UniProt P03345)
Sequence (P03345 345-395): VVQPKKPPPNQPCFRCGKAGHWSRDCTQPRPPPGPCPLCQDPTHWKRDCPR

HTLV-1 nucleocapsid CTD, sequence (P03345 396-429): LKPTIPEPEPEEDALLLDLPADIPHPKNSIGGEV

For “HTLV-1 nucleocapsid CTD (from UniProt P03345)”, which Kd is on record?
Its Kd is 200 nM.
